Assay results reported in publication PMC10031235 (Protein Science : A Publication of the Protein Society, 2023).

Molecular target: the molecule itself
Test: SEC; size-exclusion chromatography of purified PSAT in solution (Figure S7); conditions not shown

B1: human phosphoserine aminotransferase (PSAT-β) (enzyme)
chain: MDAPRQVVNFGPGPAKLPHSVLLEIQKELLDYKGVGISVLEMSHRSSDFAKIINNTENLVRELLAVPDNYKVIFLQGGGCGQFSAVPLNLIGLKAGRCADYVVTGAWSAKAAEEAKKFGTINIVHPKLGSYTKIPDPSTWNLNPDASYVYYCANETVHGVEFDFIPDVKGAVLVCDMSSNFLSKPVDVSKFGVIFAGAQKNVGSAGVTVVIVRDDLLGFALRECPSVLEYKVQAGNSSLYNTPPCFSIYVMGLVLEWIKNNGGAAAMEKLSSIKSQTIYEIIDNSQGFYVCPVEPQNRSKMNIPFRIGNAKGDDALEKRFLDKALELNMLSLKGHRSVGGIRASLYNAVTIEDVQKLAAFMKKFLEMHQL
modifications: pyridoxal 5'-phosphate covalently bound to Lys200 (internal aldimine); pyridoxamine phosphate in place of PLP in some chains
notes: human phosphoserine aminotransferase, PSAT1 (PSAT-β), wild type, EC 2.6.1.52; gene coding for human PSAT-β cloned in a modified pET28b; electron density continuous from residue 6 to 370; also called PSAT1; human PSAT; source: E. coli BL21(DE3) tuner, purified (IMAC Talon; Superdex 75 before crystallization)
With B1 the “stoichiometry N” value was 2.
